Laboratory results as given in patent publication US20220195007A1.

Target: CD20 polypeptide (safety switch) expressed on transduced T cells (human) (UniProt P11836)
Test: cell-based or functional assay

Sequence of UniProt P11836 (P11836 whole entry): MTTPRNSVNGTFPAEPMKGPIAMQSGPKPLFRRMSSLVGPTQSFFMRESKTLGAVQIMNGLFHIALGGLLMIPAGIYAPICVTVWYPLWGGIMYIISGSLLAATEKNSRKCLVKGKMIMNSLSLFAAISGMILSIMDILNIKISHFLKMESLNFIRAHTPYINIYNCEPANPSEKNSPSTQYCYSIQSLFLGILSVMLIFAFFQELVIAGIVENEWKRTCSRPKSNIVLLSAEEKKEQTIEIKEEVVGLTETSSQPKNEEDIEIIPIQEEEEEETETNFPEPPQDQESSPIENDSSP

Rituximab (Rituxan®, Biogen) (antibody)
4-hour chromium release assay on IL13Rα2-CAR^CD20 T cells: 70%
decrease in CD20+ cell number by flow cytometry after 1 hour (rituximab + complement vs rituximab alone): > 30%
killing of CD123-CAR T cells by rituximab and complement: 80%
